Measured values from patent US20190367616A1.

Assays:
[1] = molecular target: cynomolgus PD-1 ECD (Acro Biosystems cat. no. PD1-05223) (cynomolgus) (UniProt B0LAJ3); experiment: SPR, antibody on sensor, monomeric PD-1 ECD in solution
[2] = molecular target: human PD-1 expressed on CHO-S cells (human) (UniProt Q15116); experiment: flow cytometry PD-L1 blocking assay on CHO-S cells transiently expressing human PD-1; non-specific control antibody; ligand R-PE PD-L1-Fc (16.4 nM final)
Chain of human PD-1 expressed on CHO-S cells (human) (Q15116 25-288): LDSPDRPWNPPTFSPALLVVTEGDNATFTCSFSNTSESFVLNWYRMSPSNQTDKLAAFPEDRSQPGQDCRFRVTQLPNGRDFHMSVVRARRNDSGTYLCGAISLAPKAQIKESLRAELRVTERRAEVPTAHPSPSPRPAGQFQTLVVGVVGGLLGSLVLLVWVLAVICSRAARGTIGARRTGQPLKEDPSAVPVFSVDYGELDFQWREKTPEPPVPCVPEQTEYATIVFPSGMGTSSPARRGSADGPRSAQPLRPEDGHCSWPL

Chain of cynomolgus PD-1 ECD (Acro Biosystems cat. no. PD1-05223) (cynomolgus) (B0LAJ3 entry or part of it limits assumed): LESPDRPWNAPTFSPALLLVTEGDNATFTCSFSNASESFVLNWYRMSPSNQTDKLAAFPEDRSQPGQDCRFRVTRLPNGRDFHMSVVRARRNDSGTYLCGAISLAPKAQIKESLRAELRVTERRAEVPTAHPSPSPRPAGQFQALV

Row | Kd [1] | % of cells hu IgG binding negative / PD-L1 binding negative (lower left quadrant) [2] | % of cells hu IgG binding negative / PD-L1 binding positive (lower right quadrant) [2] | % of cells hu IgG binding positive / PD-L1 binding negative (upper left quadrant, 'blocking') [2] | Substance
1 | 1.5 nM |  |  |  | nivolumab analogue (antibody)
2 |  | 66.5% | 32.6% | 0.28% | control mAb (antibody)
3 | 3.6 nM |  |  |  | pembrolizumab/Keytruda (antibody)
